Target: CENP-T^HFD/-W complex, Q5EE01
Test: GST pull-down (Coomassie gel quantification)
Settings: chain shown with the change, parent: est. 100, read off a plot

CENP-T^HFD/-W complex, Q5EE01, sequence (chain, as listed by the source, chain 1 of 2): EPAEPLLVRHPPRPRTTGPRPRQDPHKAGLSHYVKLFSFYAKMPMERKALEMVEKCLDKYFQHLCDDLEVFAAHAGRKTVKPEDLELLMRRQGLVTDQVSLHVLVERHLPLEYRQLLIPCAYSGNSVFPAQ
CENP-T^HFD/-W complex, Q5EE01, sequence (Q5EE01 whole entry, chain 2 of 2): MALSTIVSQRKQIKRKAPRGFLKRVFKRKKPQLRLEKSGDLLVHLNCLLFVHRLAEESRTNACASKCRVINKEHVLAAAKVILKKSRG

B1: GST-Spt16 amino acids 926–965, Q9Y5B9 E935A; E936A; G937A; D938A; S939A (peptide)
chain: EPEGEGSDAAAAAAESEIEDETFNPSEDDYEEEEEDSDED
percent of parent (Exp=1): 81 % Pull-down
percent of parent (Exp=2): 90 % Pull-down

Source: article PMC4911930
